Measurements as given in patent US20250313644A1.

What was measured:
FASL [1] = target: FASL (UniProt P48023); test: ELISA, coated FASL, Ab 0.391 nM
LIGHT [2] = target: LIGHT (UniProt O43557); test: ELISA, coated LIGHT, Ab 0.000 nM (blank)
[3] = target: human TL1A (HuTL1A) (human) (UniProt O95150)
FASL [4] = target: FASL (UniProt P48023); test: ELISA, coated FASL, Ab 0.000 nM (blank)
LT-α [5] = target: T1, LT-α (UniProt P01374); test: ELISA, coated LT-α, Ab 0.391 nM
T1 sequence (looked up): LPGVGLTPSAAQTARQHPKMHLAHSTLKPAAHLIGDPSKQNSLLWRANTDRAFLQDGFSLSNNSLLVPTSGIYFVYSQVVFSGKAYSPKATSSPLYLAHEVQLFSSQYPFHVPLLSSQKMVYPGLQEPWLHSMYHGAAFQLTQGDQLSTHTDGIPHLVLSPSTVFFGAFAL

TNFα [6] = target: TNFα (UniProt P01375); test: ELISA, coated TNF-α, Ab 0.000 nM (blank)
LIGHT [7] = target: LIGHT (UniProt O43557); test: ELISA, coated LIGHT, Ab 6.25 nM
TNFα [8] = target: TNFα (UniProt P01375); test: ELISA, coated TNF-α, Ab 1.563 nM
TNFα [9] = target: TNFα (UniProt P01375); test: ELISA, coated TNF-α, Ab 25 nM
[10] = target: human TL1A (HuTL1A) (human) (UniProt O95150); test: ELISA: biotin-HuTL1A on streptavidin plate, antibody diluted at pH 5.8, HRP-anti-human Fc, OD450
TNFα [11] = target: TNFα (UniProt P01375); test: ELISA, coated TNF-α, Ab 100 nM
[12] = target: human TL1A (HuTL1A) (human) (UniProt O95150); test: DLS, antigen and antibody mixed in equal moles
FASL [13] = target: FASL (UniProt P48023); test: ELISA, coated FASL, Ab 25 nM
FASL [14] = target: FASL (UniProt P48023); test: ELISA, coated FASL, Ab 6.25 nM
LT-α [15] = target: T1, LT-α; test: ELISA, coated LT-α, Ab 25 nM
[16] = target: human TL1A (HuTL1A) (human) (UniProt O95150); test: ELISA: biotin-HuTL1A on streptavidin plate, antibody diluted at pH 7.4, HRP-anti-human Fc, OD450
LIGHT [17] = target: LIGHT (UniProt O43557); test: ELISA, coated LIGHT, Ab 100 nM
LT-α [18] = target: T1, LT-α; test: ELISA, coated LT-α, Ab 1.563 nM
[19] = target: human TL1A (HuTL1A) (human) (UniProt O95150); remark: listed apart in the source
LT-α [20] = target: T1, LT-α; test: ELISA, coated LT-α, Ab 6.25 nM
TNFα [21] = target: TNFα (UniProt P01375); test: ELISA, coated TNF-α, Ab 0.391 nM
LIGHT [22] = target: LIGHT (UniProt O43557); test: ELISA, coated LIGHT, Ab 0.391 nM
FASL [23] = target: FASL (UniProt P48023); test: ELISA, coated FASL, Ab 100 nM
LT-α [24] = target: T1, LT-α; test: ELISA, coated LT-α, Ab 100 nM
FASL [25] = target: FASL (UniProt P48023); test: ELISA, coated FASL, Ab 1.563 nM
TNFα [26] = target: TNFα (UniProt P01375); test: ELISA, coated TNF-α, Ab 6.25 nM
LT-α [27] = target: T1, LT-α; test: ELISA, coated LT-α, Ab 0.000 nM (blank)
LIGHT [28] = target: LIGHT (UniProt O43557); test: ELISA, coated LIGHT, Ab 25 nM
LIGHT [29] = target: LIGHT (UniProt O43557); test: ELISA, coated LIGHT, Ab 1.563 nM
[30] = target: human TL1A (HuTL1A) (human) (UniProt O95150); test: competition ELISA: antibody dilution mixed 1:1 with Biotin-TL1A, added to coated DcR3 (1 µg/mL), Streptavidin-HRP, OD450; blocked partner of TL1A: DcR3

Chain of TNFα (P01375 77-233 limits assumed): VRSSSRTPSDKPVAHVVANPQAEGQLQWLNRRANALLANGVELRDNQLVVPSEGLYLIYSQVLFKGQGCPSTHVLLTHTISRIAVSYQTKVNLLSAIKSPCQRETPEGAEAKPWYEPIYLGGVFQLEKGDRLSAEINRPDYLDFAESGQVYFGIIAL
Chain of human TL1A (HuTL1A) (human) (O95150 57-251 limits assumed): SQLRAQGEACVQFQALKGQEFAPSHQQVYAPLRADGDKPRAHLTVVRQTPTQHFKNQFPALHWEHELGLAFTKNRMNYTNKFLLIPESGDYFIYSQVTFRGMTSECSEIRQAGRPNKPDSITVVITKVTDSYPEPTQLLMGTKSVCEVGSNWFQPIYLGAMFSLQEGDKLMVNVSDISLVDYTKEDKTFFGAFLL
Chain of LIGHT (O43557 74-240 limits assumed): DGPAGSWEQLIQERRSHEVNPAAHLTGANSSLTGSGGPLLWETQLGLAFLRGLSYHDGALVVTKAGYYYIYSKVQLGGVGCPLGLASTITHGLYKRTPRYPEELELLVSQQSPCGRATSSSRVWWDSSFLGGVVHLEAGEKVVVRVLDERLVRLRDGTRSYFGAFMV
Chain of BM1 antibody (Pfizer/Roivant TL1A monoclonal antibody RVT-3101) (VH): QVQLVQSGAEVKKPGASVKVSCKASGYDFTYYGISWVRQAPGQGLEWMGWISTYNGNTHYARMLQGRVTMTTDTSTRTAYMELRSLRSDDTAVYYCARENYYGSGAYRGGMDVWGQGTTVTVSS
Chain of BM1 antibody (Pfizer/Roivant TL1A monoclonal antibody RVT-3101) (VL): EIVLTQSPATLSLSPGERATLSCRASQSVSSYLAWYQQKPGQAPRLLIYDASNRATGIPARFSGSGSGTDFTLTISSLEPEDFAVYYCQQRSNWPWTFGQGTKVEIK
Chain of FASL (P48023 134-281 limits assumed): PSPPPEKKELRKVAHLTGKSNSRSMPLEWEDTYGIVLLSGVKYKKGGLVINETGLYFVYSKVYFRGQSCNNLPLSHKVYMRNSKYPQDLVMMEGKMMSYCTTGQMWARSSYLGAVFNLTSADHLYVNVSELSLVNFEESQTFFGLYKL

BM1 antibody (Pfizer/Roivant TL1A monoclonal antibody RVT-3101)
OD450 nm (FASL [1]): 0.051 | OD450 nm (LIGHT [2]): 0.0644 | IC50 (read off the curve); SEAP reporter in HEK293T/DR3-NFκB cells with soluble TL1A, OD655 [3]: 2 nM | OD450 nm (FASL [4]): 0.0544 | OD450 nm (LT-α [5]): 0.0978 | OD450 nm (TNFα [6]): 0.0666 | OD450 nm (LIGHT [7]): 0.0903 | OD450 nm (TNFα [8]): 0.0523 | OD450 nm (TNFα [9]): 0.0601 | EC50 (read off the curve) [10]: 0.1 nM | OD450 nm (TNFα [11]): 0.0815 | Ave Z-dia (nm) of the antigen-antibody complex [12]: 85.7 nm | OD450 nm (FASL [13]): 0.0609 | OD450 nm (FASL [14]): 0.0513 | OD450 nm (LT-α [15]): 0.0845 | EC50 (read off the curve) [16]: 0.1 nM | OD450 nm (LIGHT [17]): 0.0996 | OD450 nm (LT-α [18]): 0.095 | IC50 (read off the curve); IFN-γ of human T cells with IL-12, IL-18 and exogenous human TL1A [19]: 0.5 nM | OD450 nm (LT-α [20]): 0.0909 | OD450 nm (TNFα [21]): 0.0539 | OD450 nm (LIGHT [22]): 0.0834 | OD450 nm (FASL [23]): 0.0855 | OD450 nm (LT-α [24]): 0.0823 | OD450 nm (FASL [25]): 0.0518 | OD450 nm (TNFα [26]): 0.0511 | OD450 nm (LT-α [27]): 0.0972 | OD450 nm (LIGHT [28]): 0.0916 | OD450 nm (LIGHT [29]): 0.0887 | IC50 (read off the curve) [30]: 0.2 µg/mL
